{"source": "patent US20220259593A1", "about": "“CONTROL OF MAMMALIAN GENE DOSAGE USING CRISPR” (The Regents of the University of California, priority 2019, published 2022)", "molecules": {"B1": {"name": "cr686 (nucleic acid)", "guide": "GTTTAAGAGCTAAGCTGGAAACAGCATAGCAACTTTAAATAAGGCTAGTCCGTTATCAACTTGAAAAAGTGGCACCGAGACGGTGCT", "modifications": "listed as DNA, chemistry not fully specified"}, "B2": {"name": "cr784 (nucleic acid)", "guide": "B1 guide with C33G, G43T, G44C, C50T, A80T", "modifications": "listed as DNA, chemistry not fully specified"}, "B3": {"name": "cr551 (nucleic acid)", "guide": "B1 guide with A26T, C33G, A80T", "modifications": "listed as DNA, chemistry not fully specified"}, "B4": {"name": "cr434 (nucleic acid)", "guide": "B1 guide with C33G, G63C, A65T, A80T", "modifications": "listed as DNA, chemistry not fully specified"}, "B5": {"name": "cr329 (nucleic acid)", "guide": "B1 guide with G43A, C51T, A80T", "modifications": "listed as DNA, chemistry not fully specified"}, "B6": {"name": "cr790 (nucleic acid)", "guide": "B1 guide with G77A, A80T, C81T", "modifications": "listed as DNA, chemistry not fully specified"}, "B7": {"name": "cr036 (nucleic acid)", "guide": "B1 guide with T2C, T4A, C33G, A80T", "modifications": "listed as DNA, chemistry not fully specified"}, "B8": {"name": "cr942 (nucleic acid)", "guide": "B1 guide with C33G, T56C, A66C, A80T", "modifications": "listed as DNA, chemistry not fully specified"}, "B9": {"name": "cr990 (nucleic acid)", "guide": "B1 guide with G29T, C33G, T34C, C57G, A80T", "modifications": "listed as DNA, chemistry not fully specified"}, "B10": {"name": "cr802 (nucleic acid)", "guide": "B1 guide with C33G, G43C, C51G, C60G, G69C, C75G, A80T, G83C", "modifications": "listed as DNA, chemistry not fully specified"}, "B11": {"name": "cr515 (nucleic acid)", "guide": "B1 guide with G18T, C33G, A80T", "modifications": "listed as DNA, chemistry not fully specified"}, "B12": {"name": "cr583 (nucleic acid)", "guide": "B1 guide with C33G, A41C, G52A, A58T, A80T", "modifications": "listed as DNA, chemistry not fully specified"}, "B13": {"name": "cr383 (nucleic acid)", "guide": "B1 guide with G77T, A80T, C81A", "modifications": "listed as DNA, chemistry not fully specified"}, "B14": {"name": "cr589 (nucleic acid)", "guide": "B1 guide with C33G, G43T, C45A, G48T, C51A, A80T", "modifications": "listed as DNA, chemistry not fully specified"}, "B15": {"name": "cr673 (nucleic acid)", "guide": "B1 guide with A78T, A80T", "modifications": "listed as DNA, chemistry not fully specified"}, "B16": {"name": "cr033 (nucleic acid)", "guide": "B1 guide with T4A, G7A, C33G, A80T", "modifications": "listed as DNA, chemistry not fully specified"}, "B17": {"name": "cr661 (nucleic acid)", "guide": "B1 guide with G29A, C33G, G52C, A66T, A80T", "modifications": "listed as DNA, chemistry not fully specified"}, "B18": {"name": "cr797 (nucleic acid)", "guide": "B1 guide with C33G, T54G, A80T", "modifications": "listed as DNA, chemistry not fully specified"}, "B19": {"name": "cr882 (nucleic acid)", "guide": "B1 guide with C33G, G63C, A80T", "modifications": "listed as DNA, chemistry not fully specified"}, "B20": {"name": "cr179 (nucleic acid)", "guide": "B1 guide with C33G, T34G, C76T, A80T, G82A", "modifications": "listed as DNA, chemistry not fully specified"}, "B21": {"name": "cr565 (nucleic acid)", "guide": "B1 guide with C33G, T61G, T62C, A67G, A68C, A80T", "modifications": "listed as DNA, chemistry not fully specified"}, "B22": {"name": "cr135 (nucleic acid)", "guide": "B1 guide with C33G, G43C, C51G, C60A, G69T, A74G, A80T, T84C", "modifications": "listed as DNA, chemistry not fully specified"}, "B23": {"name": "cr056 (nucleic acid)", "guide": "B1 guide with T3G, A5C, C33G, A80T", "modifications": "listed as DNA, chemistry not fully specified"}, "B24": {"name": "cr034 (nucleic acid)", "guide": "B1 guide with T2C, T3A, C33G, A80T", "modifications": "listed as DNA, chemistry not fully specified"}, "B25": {"name": "cr540 (nucleic acid)", "guide": "B1 guide with G43T, C51A, A80T", "modifications": "listed as DNA, chemistry not fully specified"}, "B26": {"name": "cr118 (nucleic acid)", "guide": "B1 guide with A23G, C33G, A80T", "modifications": "listed as DNA, chemistry not fully specified"}, "B27": {"name": "cr858 (nucleic acid)", "guide": "B1 guide with A20G, C33G, A80T", "modifications": "listed as DNA, chemistry not fully specified"}, "B28": {"name": "cr140 (nucleic acid)", "guide": "B1 guide with C33G, C60T, T61C, A68G, G69A, A80T", "modifications": "listed as DNA, chemistry not fully specified"}, "B29": {"name": "cr334 (nucleic acid)", "guide": "B1 guide with C33G, C60G, T62G, A67C, G69C, G77A, A80T, C81T", "modifications": "listed as DNA, chemistry not fully specified"}, "B30": {"name": "cr345 (nucleic acid)", "guide": "B1 guide with A21C, C33G, A80T", "modifications": "listed as DNA, chemistry not fully specified"}, "B31": {"name": "cr710 (nucleic acid)", "guide": "B1 guide with C33G, C75G, A80T, G83C", "modifications": "listed as DNA, chemistry not fully specified"}, "B32": {"name": "cr412 (nucleic acid)", "guide": "B1 guide with C33G, C60G, G69C, A80T", "modifications": "listed as DNA, chemistry not fully specified"}, "B33": {"name": "cr600 (nucleic acid)", "guide": "B1 guide with C33G, C60G, A65G, G69C, A80T", "modifications": "listed as DNA, chemistry not fully specified"}, "B34": {"name": "cr610 (nucleic acid)", "guide": "B1 guide with C33G, C60G, T61A, A68T, G69C, G72A, A80T, C86T", "modifications": "listed as DNA, chemistry not fully specified"}, "B35": {"name": "cr561 (nucleic acid)", "guide": "B1 guide with C33G, A47T, A80T", "modifications": "listed as DNA, chemistry not fully specified"}, "B36": {"name": "cr896 (nucleic acid)", "guide": "B1 guide with C33G, C73A, A74C, A80T, T84G, G85T", "modifications": "listed as DNA, chemistry not fully specified"}, "B37": {"name": "cr934 (nucleic acid)", "guide": "B1 guide with C33G, A47T, T56C, G79T, A80T", "modifications": "listed as DNA, chemistry not fully specified"}, "B38": {"name": "cr444 (nucleic acid)", "guide": "B1 guide with C33G, A65C, A80T", "modifications": "listed as DNA, chemistry not fully specified"}, "B39": {"name": "cr929 (nucleic acid)", "guide": "B1 guide with C33G, G72T, A80T", "modifications": "listed as DNA, chemistry not fully specified"}, "B40": {"name": "cr978 (nucleic acid)", "guide": "B1 guide with C33G, C73A, C75A, A80T, G83T, G85T", "modifications": "listed as DNA, chemistry not fully specified"}, "B41": {"name": "cr884 (nucleic acid)", "guide": "B1 guide with C33G, A59C, T62A, A67T, T70G, G72T, A80T, C86A", "modifications": "listed as DNA, chemistry not fully specified"}}, "note": "Residue numbers refer to the chain shown, from its start.", "data": [{"system": "K562 CRISPRi cells", "assay": "Constant region variant library pooled growth screen, K562", "type": "cell-based, human", "settings": "sgRNA constant region variants; activity relative to the original, un-modified constant region cr995", "procedure,_shortened": "(§1)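 K562 CRISPRi, duplicate transductions; puromycin 1 d 0.75 μg/mL then 1 d 0.85 μg/mL; >2000× coverage in spinner flasks; harvests at 4-8 d growth. Activity = phenotype ÷ phenotype with unmodified constant region.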", "values": [{"molecule": "B1", "Mean relative activity": "−0.004019"}, {"molecule": "B2", "Mean relative activity": "−0.01213"}, {"molecule": "B3", "Mean relative activity": "−0.109"}, {"molecule": "B4", "Mean relative activity": 1.027}, {"molecule": "B5", "Mean relative activity": "−0.007607"}, {"molecule": "B6", "Mean relative activity": "−0.01697"}, {"molecule": "B7", "Mean relative activity": "−0.005679"}, {"molecule": "B8", "Mean relative activity": 1.087}, {"molecule": "B9", "Mean relative activity": "−0.0163"}, {"molecule": "B10", "Mean relative activity": "−0.005377"}, {"molecule": "B11", "Mean relative activity": 1.027}, {"molecule": "B12", "Mean relative activity": "−0.01013"}, {"molecule": "B13", "Mean relative activity": "−0.005505"}, {"molecule": "B14", "Mean relative activity": "−0.005108"}, {"molecule": "B15", "Mean relative activity": "−0.005072"}, {"molecule": "B16", "Mean relative activity": "−0.004656"}, {"molecule": "B17", "Mean relative activity": "−0.01151"}, {"molecule": "B18", "Mean relative activity": 1.027}, {"molecule": "B19", "Mean relative activity": 1.027}, {"molecule": "B20", "Mean relative activity": "−0.004493"}, {"molecule": "B21", "Mean relative activity": 1.085}, {"molecule": "B22", "Mean relative activity": "−0.00878"}, {"molecule": "B23", "Mean relative activity": "−0.009512"}, {"molecule": "B24", "Mean relative activity": "−0.007191"}, {"molecule": "B25", "Mean relative activity": "−0.0122"}]}, {"system": "K562 CRISPRi cells", "assay": "Constant region variant library pooled growth screen, K562", "type": "cell-based, human", "settings": "sgRNA constant region variants; relative to the original, un-modified constant region cr995 (= 1)", "procedure,_shortened": "as §1", "values": [{"molecule": "B26", "Mean relative activity": 1.025}, {"molecule": "B27", "Mean relative activity": 1.025}, {"molecule": "B28", "Mean relative activity": 1.023}, {"molecule": "B29", "Mean relative activity": 1.025}, {"molecule": "B30", "Mean relative activity": 1.021}, {"molecule": "B31", "Mean relative activity": 1.021}, {"molecule": "B32", "Mean relative activity": 1.025}, {"molecule": "B33", "Mean relative activity": 1.021}, {"molecule": "B34", "Mean relative activity": 1.027}, {"molecule": "B35", "Mean relative activity": 1.021}, {"molecule": "B36", "Mean relative activity": 1.025}, {"molecule": "B37", "Mean relative activity": 1.024}, {"molecule": "B38", "Mean relative activity": 1.023}, {"molecule": "B39", "Mean relative activity": 1.025}, {"molecule": "B40", "Mean relative activity": 1.021}, {"molecule": "B41", "Mean relative activity": 1.027}]}]}
